From paper PMC8219380, “The discriminatory power of the T cell receptor” (eLife, 2021)
Several values for one entry are separate records, joined by “and”; a condition that tells them apart may be missing. Identical values can stand only once.

Columns and labels:
[1] = biological target: Tax 1A peptide on HLA-A*02:01 (human | HTLV-1); assay: SPR
[2] = biological target: Tax 1V peptide on HLA-A*02:01 (human | HTLV-1); assay: SPR
[3] = biological target: Tax 4A peptide on HLA-A*02:01 (human | HTLV-1); assay: SPR
[4] = biological target: Tax 4A8A peptide on HLA-A*02:01 (human | HTLV-1); assay: SPR
[5] = biological target: Tax 5F peptide on HLA-A*02:01 (human | HTLV-1); assay: SPR
[6] = biological target: Tax 5H peptide on HLA-A*02:01 (human | HTLV-1); assay: SPR
[7] = biological target: Tax 5H8A peptide on HLA-A*02:01 (human | HTLV-1); assay: SPR
[8] = biological target: Tax 5W peptide on HLA-A*02:01 (human | HTLV-1); assay: SPR
[9] = biological target: Tax 6V peptide on HLA-A*02:01 (human | HTLV-1); assay: SPR
[10] = biological target: Tax 7H peptide on HLA-A*02:01 (human | HTLV-1); assay: SPR
[11] = biological target: Tax 7R peptide on HLA-A*02:01 (human | HTLV-1); assay: SPR
[12] = biological target: Tax 7T peptide on HLA-A*02:01 (human | HTLV-1); assay: SPR
[13] = biological target: Tax 8A peptide on HLA-A*02:01 (human | HTLV-1); assay: SPR
[14] = biological target: Tax 8F peptide on HLA-A*02:01 (human | HTLV-1); assay: SPR
[15] = biological target: Tax 5F peptide on HLA-A*02:01 (human | HTLV-1); assay: SPR; 37°C
[16] = biological target: NY-ESO-1 (peptide variant NYE 5F) peptide on HLA-A*02:01 (human); assay: SPR at 37°C, new method with Bmax constrained by the W6/32 standard curve; soluble, other
[17] = biological target: NY-ESO-1 (NYE 9V: heteroclitic variant of the wild-type NYE-ESO 157–165 9C peptide) peptide on HLA-A*02:01 (human); assay: SPR at 37°C (Biacore T200), soluble 1G4 injected over immobilised biotinylated pMHC; standard method with fitted Bmax; Figure 1A–C left column, which the legend names NYE 9V; soluble, other
[18] = biological target: NYE 3A peptide on HLA-A*02:01; assay: SPR
[19] = biological target: NYE 3Y peptide on HLA-A*02:01; assay: SPR
[20] = biological target: NYE 4A peptide on HLA-A*02:01; assay: SPR
[21] = biological target: NYE 5F peptide on HLA-A*02:01; assay: SPR
[22] = biological target: NYE 5Y peptide on HLA-A*02:01; assay: SPR
[23] = biological target: NYE 6T peptide on HLA-A*02:01; assay: SPR
[24] = biological target: NYE 9V peptide on HLA-A*02:01; assay: SPR
[25] = biological target: NYE 9V peptide on HLA-A*02:01 (pMHC); assay: SPR
[26] = biological target: NYE 5F peptide on HLA-A*02:01; assay: SPR; 37°C
[27] = biological target: NYE 5F peptide on HLA-A*02:01; assay: SPR; Bmax fitted, 37°C
[28] = biological target: NYE 9V peptide on HLA-A*02:01; assay: SPR; Bmax fitted, 37°C
[29] = biological target: NYE 5F peptide on HLA-A*02:01; assay: SPR; Bmax constrained, 37°C
[30] = biological target: NYE 9V peptide on HLA-A*02:01; assay: SPR; Bmax constrained, 37°C
1G4 TCR = assay: SPR, 1G4 TCR binding to immobilised pMHC (steady state, 37°C); set-up: species or system human; settings: Bmax fitted, read-out: KD (standard protocol)
[31] = test system: CD8+ T cell blasts expressing 1G4 TCR; assay: TCR downregulation (tetramer gMFI), plate-bound pMHC + CD58; assay type: cell-based, human
Excerpt: (§1) Figure 4. The T cell discriminatory power is enhanced by ligation of the receptors CD2 or LFA-1. (A) Protocol for stimulation of CD8^+ T cell blasts with plate-bound recombinant ligands. (B, C) Example dose-response curve for 1G4 T cell blasts stimulated with (B) peptides presented on major histocompatibility complex (pMHC) alone or (C) in combination with CD58 or ICAM1. (D, E) Potency derived from dose-response curves over KD showing the power function fit (D) with pMHC alone or (E) in combination with CD58 or ICAM1. (F) Comparison of the fitted discrimination power (α) and (G) fitted sensitivity ( C ). Shown are geometric means with each dot representing an independent experiment (n = 4–5). (F) In grey the result of a statistical test vs. 1 is shown (p=0.09 for pMHC, p=0.002 for CD58 and ICAM1, p=0.0002 for U87/1G4). Figure 4—source data 1. CD69 dose-response data for Figure 4. […]
(§2) For stimulation, T cells were counted, washed once to remove excess IL2, and 75,000 cells in 180–200 μl complete RMPI were dispensed per well. […] Cells were stained for flow cytometry and analysed immediately, or fixed and stored for up to 1 day. […]
(§3) Tetramers were produced in-house using refolded monomeric, biotinylated pMHC, and streptavidin-PE (Biolegend) at a 1:4 molar ratio. […] Samples were analysed using a BD X-20 flow cytometer, and data analysis was performed using FlowJo v10 (BD Biosciences).

[32] = test system: CD8+ T cell blasts expressing 1G4 TCR; assay: TCR downregulation (tetramer gMFI), plate-bound pMHC + ICAM1; assay type: cell-based, human
Excerpt: as §1, §2, §3

soluble A6 αβ TCR
Kd [1]: 4.25 µM and 6.5 µM
Kd [2]: 6.92 µM and 7.97 µM
Kd [3]: 72.5 µM and 118 µM
Kd [4]: 194 µM and 1870 µM
Kd [5]: 3.36 µM and 2.67 µM
Kd [6]: 36.2 µM and 56.1 µM
Kd [7]: 2820 µM and 2320 µM
Kd [8]: 6.08 µM and 5 µM
Kd [9]: 13.5 µM and 21.1 µM
Kd [10]: 45.8 µM and 67.8 µM
Kd [11]: 11.5 µM and 21.4 µM
Kd [12]: 3.42 µM and 2.8 µM
Kd [13]: 599 µM and 565 µM
Kd [14]: 37.1 µM and 60 µM
Kd [15]: 3 µM

1G4 TCR
Kd [16]: 1310 µM
Kd [17]: 7 µM

soluble 1G4 αβ TCR
Kd ([18]; Bmax constrained (new method)): 6.28 µM
Kd ([18]; Bmax fitted (standard method)): 7.04 µM
Kd ([19]; Bmax constrained (new method)): 47.3 µM
Kd ([19]; Bmax fitted (standard method)): 36.3 µM
Kd ([20]; Bmax constrained (new method)): 299 µM
Kd ([20]; Bmax fitted (standard method)): 157 µM
Kd [21]: 756 µM
Kd ([22]; Bmax constrained (new method)): 433 µM
Kd ([22]; Bmax fitted (standard method)): 191 µM
Kd ([23]; Bmax constrained (new method)): 162 µM
Kd ([23]; Bmax fitted (standard method)): 84.6 µM
Kd ([24]; Bmax constrained (new method)): 4.93 µM
Kd ([24]; Bmax fitted (standard method)): 7.97 µM
Kd [25]: 7 µM
Kd [26]: 1310 µM
Kd [27]: 198 µM
Kd [28]: 6.8 µM
Kd [29]: 1590 µM
Kd [30]: 4.6 µM

NY-ESO-1 peptide: cognate NY-ESO-1 peptide of the 1G4 TCR
Kd (1G4 TCR): ~7 µM

B1: CD58: soluble extracellular domain of human CD58, the ligand to CD2 (protein, UniProt P19256 29-215, looked up)
extracellular domain: FSQQIYGVVYGNVTFHVPSNVPLKEVLWKKQKDKVAELENSEFRAFSSFKNRVYLDTVSGSLTIYNLTSSDEDEYEMESPNITDTMKFFLYVLESLPSPTLTCALTNGSIEVQCMIPEHYNSHRGLIMYSWDCPMEQCKRNSTSIYFKMENDLPQKIQCTLSNPLFNTTSSIILTTCIPSSGHSRHR
modifications: extracellular domain
notes: soluble extracellular domain of human CD58, the ligand to CD2
TCR downregulation [31]: increased TCR downregulation

B2: ICAM1: human ICAM1 ECD, a ligand of LFA-1 (protein, UniProt P05362 28-480, looked up)
extracellular domain: QTSVSPSKVILPRGGSVLVTCSTSCDQPKLLGIETPLPKKELLLPGNNRKVYELSNVQEDSQPMCYSNCPDGQSTAKTFLTVYWTPERVELAPLPSWQPVGKNLTLRCQVEGGAPRANLTVVLLRGEKELKREPAVGEPAEVTTTVLVRRDHHGANFSCRTELDLRPQGLELFENTSAPYQLQTFVLPATPPQLVSPRVLEVDTQGTVVCSLDGLFPVSEAQVHLALGDQRLNPTVTYGNDSFSAKASVSVTAEDEGTQRLTCAVILGNQSQETLQTVTIYSFPAPNVILTKPEVSEGTEVTVKCEAHPRAKVTLNGVPAQPLGPRAQLLLKATPEDNGRSFSCSATLEVAGQLIHKNQTRELRVLYGPRLDERDCPGNWTWPENSQQTPMCQAWGNPLPELKCLKDGTFPLPIGESVTVTRDLEGTYLCRARSTQGEVTRKVTVNVLSPRYE
modifications: extracellular domain
TCR downregulation [32]: increased TCR downregulation
